The text below walks through data of publication PMC2764113 (Molecular Microbiology, 2009).

This data set deals with the molecule itself. Description: native gel or EMSA. (In general: Mobility shift assays separate free from complexed probe on a gel.)

B1: Q115R Sin (enzyme, Staphylococcus aureus (plasmid pI9789))
chain: MIIGYARVSSLDQNLERQLENLKTFGAEKIFTEKQSGKSIENRPILQKALNFVRMGDRFIVESIDRLGRNYNEVIHTVNYLKDKEVQLMITSLPMMNEVIGNPLLDKFMKDLIIRILAMVSEQERNESKRRQAQGIQVAKEKGVYKGRPLLYSPNAKDPQKRVIYHRVVEMLEEGQAISKIAKEVNITRQTVYRIKHDNGLS
With B1, the binding result is listed as “binds”.

B2: T77I/I100T/Q115R Sin (enzyme, Staphylococcus aureus (plasmid pI9789))
chain: MIIGYARVSSLDQNLERQLENLKTFGAEKIFTEKQSGKSIENRPILQKALNFVRMGDRFIVESIDRLGRNYNEVIHIVNYLKDKEVQLMITSLPMMNEVTGNPLLDKFMKDLIIRILAMVSEQERNESKRRQAQGIQVAKEKGVYKGRPLLYSPNAKDPQKRVIYHRVVEMLEEGQAISKIAKEVNITRQTVYRIKHDNGLS
For the protein B2, the binding result is listed as “binds”.
